In patent publication US20180092964A1:

Molecular target: VLDL receptor (VLDLR) on U937 clone 10 cells (UniProt P98155)
Experiment: cell-based or functional assay

Substance: low endotoxin recombinant RAP (LDL Receptor-Associated Protein) (from UniProt P30533 35-357)
- HIV-1 infectivity of U937 clone 10 cells preconditioned with RAP for 15 min, then with α1PI, and cultured for 8 days: 93%
